Measurements as given in paper PMC5840378, “Cytochrome c speeds up caspase cascade activation by blocking 14-3-3ε-dependent Apaf-1 inhibition” (Cell Death & Disease, 2018).
Numbering of substitutions follows the chain as printed. Numbers in names are those of the source. No end group written: not given here.

T1: 14-3-3ε full length (14-3-3ε FL), recombinant (UniProt P62258 1-255)
T1 construct: 14-3-3ε (14-3-3 protein epsilon), full length, cloned NdeI-XhoI into pET-28a; Homodimer by ultracentrifugation and light scattering; The printed cloning primers seem to add a Met before Met1 and a Glu after the last residue; also called 14-3-3ε FL WT; source: E. coli BL21 (DE3), purified (Ni Sepharose)
T1 sequence (looked up): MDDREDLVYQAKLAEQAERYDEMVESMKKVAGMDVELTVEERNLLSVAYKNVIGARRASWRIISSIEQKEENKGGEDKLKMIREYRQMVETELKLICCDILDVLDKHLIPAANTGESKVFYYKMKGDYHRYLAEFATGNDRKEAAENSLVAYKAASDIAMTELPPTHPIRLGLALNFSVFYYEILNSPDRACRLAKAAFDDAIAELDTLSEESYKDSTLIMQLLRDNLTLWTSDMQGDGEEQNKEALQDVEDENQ

B1: 14-3-3ε C-terminal peptide (14-3-3ε_(234-255)) (peptide, UniProt P62258 234-255, looked up)
peptide: DMQGDGEEQNKEALQDVEDENQ
notes: 14-3-3ε, C-terminal tail, residues 234-255; also called non-acetylated peptide; C-terminal tail of 14-3-3ε; source: bought: Genosphere Biotechnologies (France)
B2: cytochrome c (Cc), recombinant (natural protein)
chain: not shown
modifications: heme group; 15N-labelled for the 2D NMR titrations
notes: Met80 is M81 in P99999); Reduced with sodium ascorbate in the NMR experiments; also called hemeprotein; reduced Cc; source: E. coli BL21 (DE3), purified (ionic chromatography, carboxy-methylcellulose)
B3: acetylated 14-3-3ε_(234-255) peptide (peptide, UniProt P62258 234-255, looked up)
peptide: Ac-DMQGDGEEQNKEALQDVEDENQ
notes: 14-3-3ε, C-terminal tail, residues 234-255, N-terminally acetylated; also called acetylated peptide
B4: fluorinated 14-3-3ε_(234-255) peptide (Lys244 covalently bound to 5-fluorindole) (peptide, UniProt P62258 234-255, looked up)
peptide: Ac-DMQGDGEEQNK(5‑fluorindole)EALQDVEDENQ
notes: 14-3-3ε, C-terminal tail, residues 234-255; source: acetylated 14-3-3ε_(234-255) peptide conjugated with 5-fluoroindole (formaldehyde, 24 h, 30 °C), dialyzed
B5: 14-3-3ε FL D21K (natural protein, UniProt P62258 1-255, looked up)
chain: T1 sequence (looked up) with D21K
notes: 14-3-3ε full length with D21K; source: E. coli BL21 (DE3), purified (Ni Sepharose); mutant obtained from Mutagenex Inc
B6: 14-3-3ε FL K50E (natural protein, UniProt P62258 1-255, looked up)
chain: T1 sequence (looked up) with K50E
notes: 14-3-3ε full length with K50E; source: E. coli BL21 (DE3), purified (Ni Sepharose); mutant obtained from Mutagenex Inc
B7: 14-3-3ε FL S59E (natural protein, UniProt P62258 1-255, looked up)
chain: T1 sequence (looked up) with S59E
notes: 14-3-3ε full length with S59E; source: E. coli BL21 (DE3), purified (Ni Sepharose); mutant obtained from Mutagenex Inc
B8: 14-3-3ε FL E92K (natural protein, UniProt P62258 1-255, looked up)
chain: T1 sequence (looked up) with E92K
notes: 14-3-3ε full length with E92K; source: E. coli BL21 (DE3), purified (Ni Sepharose); mutant obtained from Mutagenex Inc
B9: 14-3-3ε FL D99K (natural protein, UniProt P62258 1-255, looked up)
chain: T1 sequence (looked up) with D99K
notes: 14-3-3ε full length with D99K; source: E. coli BL21 (DE3), purified (Ni Sepharose); mutant obtained from Mutagenex Inc
B10: 14-3-3ε FL S187D (natural protein, UniProt P62258 1-255, looked up)
chain: T1 sequence (looked up) with S187D
notes: 14-3-3ε full length with S187D; source: E. coli BL21 (DE3), purified (Ni Sepharose); mutant obtained from Mutagenex Inc

Tests used:
[1] = molecular target: B2; assay: ITC; Auto-ITC200, 25 °C; 2-μL injections of 300 μM Cc into the cell with 20 μM 14-3-3ε species or peptide; 10 mM sodium phosphate pH 7.4; conditions: both partners purified
[2] = molecular target: B2; assay: NMR titration; 50 μM reduced 15N-labelled Cc titrated with unlabeled 14-3-3ε FL (700 MHz) or 14-3-3ε_(234-255) peptide (600 MHz); 1D 1H and 2D [1H,15N] HSQC; 25 °C; 5 mM sodium phosphate pH 6.3, 0.1 M sodium ascorbate; CSP curves fitted with a one-site model; conditions: both partners purified
14-3-3ε FL S187D = molecular target: B10; assay: ITC; Auto-ITC200, 25 °C; 2-μL injections of 300 μM Cc into the cell with 20 μM 14-3-3ε species or peptide; 10 mM sodium phosphate pH 7.4; conditions: both partners purified
14-3-3ε FL D99K = molecular target: B9; assay: as above; conditions: both partners purified
[3] = molecular target: B1; assay: as above; conditions: both partners purified
14-3-3ε FL D21K = molecular target: B5; assay: as above; conditions: both partners purified
[4] = molecular target: T1, 14-3-3ε full length (14-3-3ε FL), …; assay: as above; conditions: both partners purified
14-3-3ε FL E92K = molecular target: B8; assay: as above; conditions: both partners purified
14-3-3ε FL S59E = molecular target: B7; assay: as above; conditions: both partners purified
14-3-3ε FL K50E = molecular target: B6; assay: as above; conditions: both partners purified
[5] = molecular target: B2; assay: NMR titration; 1D 19F NMR of the fluorinated 14-3-3ε_(234-255) peptide titrated with Cc or BSA; 25 °C; 600 MHz; 10 mM sodium phosphate pH 6.3; conditions: both partners purified
[6] = molecular target: the molecule itself; assay: AUC + other: dynamic light scattering; sedimentation velocity, 20 °C, 45,000 r.p.m., 37 μM, 5 mM sodium phosphate pH 6.3; DLS at 0.1 mg/mL, 25 °C, same buffer

B1
Kd [1]: 16 µM
Kd [2]: 49 µM

B2
binding result (14-3-3ε FL S187D): binds
binding result (14-3-3ε FL D99K): binds
stoichiometry N [3]: 1
stoichiometry N (14-3-3ε FL D21K): 1
Kd [4]: 2.3 µM
stoichiometry N [4]: 2 Cc per 14-3-3ε FL homodimer
stoichiometry N (14-3-3ε FL E92K): 1
stoichiometry N (14-3-3ε FL S59E): 1
stoichiometry N (14-3-3ε FL K50E): 1

B3
binding result [1]: binds

B4
binding result [5]: binds

B5
stoichiometry N [6]: 2

B6
stoichiometry N [6]: 2

B7
stoichiometry N [6]: 2

B8
stoichiometry N [6]: 2

B9
stoichiometry N [6]: 2

B10
stoichiometry N [6]: 2
